Here are results for two substances from paper PMC7048170.

The target in the test is MUC1 cytoplasmic tail construct (MUC1 with the tandem repeat domain deleted) (human). Kind of test: co-IP.

“p53 (from UniProt P04637 1-393) (natural protein)” registered a fold of co-precipitated protein against the input control of 6.9 fold.

Turning to “c-Jun (from UniProt P05412 1-331) (natural protein)”, the fold of co-precipitated protein against the input control was 5.6 fold.
